Patent US8951758B2, “GH61 glycoside hydrolase protein variants and cofactors that enhance GH61 activity” (Codexis, Inc., priority 2011, dated 2015)

Tests used:
[1] = test system: pretreated wheat straw (PWS); test: Supplementation of CF-416 whole cellulase broth with single purified enzymes, saccharification of pretreated wheat straw; type: biochemical; conditions: 0.4% single enzyme added to 0.5% CF-416 whole cellulase broth base; for Fold Improvement Over Whole Cellulase Broth Tested on PWS: 74 g/L glucan, pH 5.0, 55° C., 50 μM copper
Procedure: (§1) In this Example, M. thermophila-produced and purified GH61a, GH61p, GH61f, GH61n, CBH1a, CBH2b, AXE3, FAE, and Xyl3, were used to supplement the activity present in culture broths (i.e., “whole broth cellulase base”) of the M. thermophila strain CF-416 prepared using standard methods known in the art. The broth cellulase base was fixed to 0.5% protein and the single purified enzyme was added at 0.4% (wt added protein/wt glucan) to the saccharification reactions. The whole cellulase broth base and individual enzymes were characterized by standard BCA assays for total protein quantification.
(§2) The saccharification reactions were carried out at 74 g/L glucan load of pretreated wheat straw (PWS) or pretreated corn stover (PCS) at pH 5.0, 55° C. at 950 rpm in the presence of 50 μM copper in high throughput (HTP) 96 deep well plates. Glucose analysis was carried out by the glucose oxidase assay as described above. In each case, the fold improvement was calculated using the formula Fold Improvement=[Total Glucose Production with addition of 0.4% single enzyme to the whole cellulase broth base]/[glucose production from the 0.5% whole cellulase broth base]. In this Table, the fold improvements were ranked from 0 to 3; fold improvements less than 1.2× are indicated by “0,” fold improvements of >1.2 to <1.5 are indicated by “1,” fold improvements of ≧1.5× to <1.7× improvements are indicated by “2,” and fold improvements ≧1.7 are indicated by “3.”

[2] = test system: pretreated corn stover (PCS); test: Supplementation of CF-416 whole cellulase broth with single purified enzymes, saccharification of pretreated corn stover; type: biochemical; conditions: 0.4% single enzyme added to 0.5% CF-416 whole cellulase broth base; for Fold Improvement Over Whole Cellulase Broth Tested on PCS: 74 g/L glucan, pH 5.0, 55° C., 50 μM copper
Procedure: as §1, §2

improvement over whole cellulase broth on PWS, in words [1]	improvement over whole cellulase broth on PCS, in words [2]	Fold Improvement Over Whole Cellulase Broth Tested on PWS [1]	Fold Improvement Over Whole Cellulase Broth Tested on PCS [2]	Molecule
did not show any improvement	did not show any improvement	–	–	beta-xylosidase: wild-type M. thermophila beta-xylosidase (SEQ ID NO:164) (protein, listed as Myceliophthora thermophila) MFFASLLLGLLAGVSASPGHGRNSTFYNPIFPGFYPDPSCIYVPERDHTFFCASSSFNAFPGIPIHASKDLQNWKLIGHVLNRKEQLPRLAETNRSTSGIWAPTLRFHDDTFWLVTTLVDDDRPQEDASRWDNIIFKAKNPYDPRSWSKAVHFNFTGYDTEPFWDEDGKVYITGAHAWHVGPYIQQAEVDLDTGAVGEWRIIWNGTGGMAPEGPHIYRKDGWYYLLAAEGGTGIDHMVTMARSRKISSPYESNPNNPVLTNANTTSYFQTVGHSDLFHDRHGNWWAVALSTRSGPEYLHYPMGRETVMTAVSWPKDEWPTFTPISGKMSGWPMPPSQKDIRGVGPYVNSPDPEHLTFPRSAPLPAHLTYWRYPNPSSYTPSPPGHPNTLRLTPSRLNLTALNGNYAGADQTFVSRRQQHTLFTYSVTLDYAPRTAGEEAGVTAFLTQNHHLDLGVVLLPRGSATAPSLPGLSSSTTTTSSSSSRPDEEEEREAGEEEEEGGQDLMIPHVRFRGESYVPVPAPVVYPIPRAWRGGKLVLEIRACNSTHFSFRVGPDGRRSERTVVMEASNEAVSWGFTGTLLGIYATSNGGNGTTPAYFSDWRYTPLEQFRD
–	–	1 (fold improvements of >1.2 to <1.5)	1 (fold improvements of >1.2 to <1.5)	CBH2b: wild-type M. thermophila CBH2b (SEQ ID NO:137) (protein, listed as Myceliophthora thermophila) MAKKLFITAALAAAVLAAPVIEERQNCGAVWTQCGGNGWQGPTCCASGSTCVAQNEWYSQCLPNSQVTSSTTPSSTSTSQRSTSTSSSTTRSGSSSSSSTTPPPVSSPVTSIPGGATSTASYSGNPFSGVRLFANDYYRSEVHNLAIPSMTGTLAAKASAVAEVPSFQWLDRNVTIDTLMVQTLSQVRALNKAGANPPYAAQLVVYDLPDRDCAAAASNGEFSIANGGAANYRSYIDAIRKHIIEYSDIRIILVIEPDSMANMVTNMNVAKCSNAASTYHELTVYALKQLNLPNVAMYLDAGHAGWLGWPANIQPAAELFAGIYNDAGKPAAVRGLATNVANYNAWSIASAPSYTSPNPNYDEKHYIEAFSPLLNSAGFPARFIVDTGRNGKQPTGQQQWGDWCNVKGTGFGVRPTANTGHELVDAFVWVKPGGESDGTSDTSAARYDYHCGLSDALQPAPEAGQWFQAYFEQLLTNANPPF
–	greatest benefit	2 (fold improvements of ≧1.5× to <1.7×)	3 (fold improvements ≧1.7)	GH61p: M. thermophila GH61p (SEQ ID NO:70; alternative SEQ ID NO:73) (protein, listed as Myceliophthora thermophila) MKLTSSLAVLAAAGAQAHYTFPRAGTGGSLSGEWEVVRMTENHYSHGPVTDVTSPEMTCYQSGVQGAPQTVQVKAGSQFTFSVDPSIGHPGPLQFYMAKVPSGQTAATFDGTGAVWFKIYQDGPNGLGTDSITWPSAGKTEVSVTIPSCIEDGEYLLRVEHTPLPTAPAAQNRARSSPSPAAYKATDPGILFQLYWPIPTEYINPGPAPVSC
did not show any improvement	did not show any improvement	–	–	EG1b: Wild-type EG1b endoglucanase (SEQ ID NO:110) (protein, listed as Myceliophthora thermophila) MGQKTLQGLVAAAALAASVANAQQPGTFTPEVHPTLPTWKCTTSGGCVQQDTSVVLDWNYRWFHTEDGSKSCITSSGVDRTLCPDEATCAKNCFVEGVNYTSSGVETSGSSLTLRQFFKGSDGAINSVSPRVYLLGGDGNYVVLKLLGQELSFDVDVSSLPCGENAALYLSEMDATGGRNEYNTGGAEYGSGYCDAQCPVQNWNNGTLNTGRVGSCCNEMDILEANSKAEAFTPHPCIGNSCDKSGCGFNAYARGYHNYWAPGGTLDTSRPFTMITRFVTDDGTTSGKLARIERVYVQDGKKVPSAAPGGDVITADGCTSAQPYGGLSGMGDALGRGMVLALSIWNDASGYMNWLDAGSNGPCSDTEGNPSNILANHPDAHVVLSNIRWGDIGSTVDTGDGDNNGGGPNPSSTTTATATTTSSGPAEPTQTHYGQCGGKGWTGPTRCETPYTCKYQNDWYSQCL
